Consider 3 molecules from patent US10175244B2, “Dominant negative HSP110 mutant and its use in prognosing and treating cancers” (INSERM (INSTITUT NATIONAL DE LA SANTÉ ET DE LA RECHERCHE …, priority 2011, dated 2019).

The subject of experiment [1] is MSI colon tumor cell lines. The experiment is described as follows: Apoptosis on re-expression of HSP110delE9 (NMD experiments). The experiment is classed as cell-based. The note with it: data not shown. From the text:
The HSP110delE9 transcript contains a premature stop codon (PTC). Consequently, it is partially degraded by the NMD system in the tumor cells. […] Synthesis of chemical or biological compounds mimicking the HSP110delE9 activity in tumor cells, in particular mimicking its anti-apoptotic effect may have a major therapeutical interest in the treatment of CRCs. In the same way, the use of compounds susceptible to promote the HSP110delE9 expression in the tumor cells would be of great interest. […] Different pharmacological inhibitors of NMD are now available. They can be used to reproduce these experiments, both in vitro in different cell models and in animal models (nude mice xenografted with MSI CRC in first-line).

For another experiment, the target named is T1, HSP110wt (Homo sapiens, UniProt Q92598).
T1 construct: host or cells: HCT116
The experiment is described as follows: Immunoprecipitation and Western-blotting, association with HSP110wt. The note with it: HCT116 cells, immunoprecipitation. The experiment is classed as binding. How it is done: FIG. 10 depicts the analysis of HSP110delE9 to wild-type HSP110. Cell lysates from HCT116 transfected with GFP-tagged HSP110 and/or HSP110delE9 were subjected to immunoprecipitation using HSP110 that recognizes the C-terminus of HSP110. After migration, membranes were immunoblotted with GFP antibody. Inputs: protein level in total cell lysates.
(§1) Transfected cells were first lysed in lysis buffer (50 mM Hepes (pH 7.6), 150 mM NaCl, 5 mM EDTA and 0.1% NP40) followed by immunoprecipitation using GFP-tag antibody. Immunoprecipitates were separated in a 10% SDS-polyacrylamide gel and then transferred to PVDF membranes using a wet transfer apparatus (BioRad, Hercules, Califomia, USA). Membranes were first probed ovemight using primary antibodies: HA-tag antibody was from Covance (Eurogentec, Angers, France), 14-3-3 from Santa-Cruz (TebuBio, Le Perray en Yvelines, France) and GFP-tag antibody from Millipore (Molsheim, France).
The skipping of HSP110 exon 9 is frameshift and therefore generates a premature terminaison codon in exon 10 of the HSP110delE9 mRNA. HSP110delE9 is a truncated protein that contains the N-terminal ATP binding domain but is devoid of the substrate binding domain (FIG. 3). We performed several functional assays to better understand the role of increased expression of HSP110delE9 in MSI CRC cell lines. […]

Another experiment has as its target T2, HSP70 (Homo sapiens, UniProt P0DMV8).
T2 construct: HA; expressed in transfected cells; host or cells: HCT116
The experiment is described as follows: Immunoprecipitation and Western-blotting, association with HSP70. The experiment is classed as binding. The note with it: HCT116 cells, immunoprecipitation. The procedure:
as §1
(§2) The skipping of HSP110 exon 9 is frameshift and therefore generates a premature terminaison codon in exon 10 of the HSP110delE9 mRNA. HSP110delE9 is a truncated protein that contains the N-terminal ATP binding domain but is devoid of the substrate binding domain (FIG. 3). We performed several functional assays to better understand the role of increased expression of HSP110delE9 in MSI CRC cell lines. Chaperone activity was first studied using a protein thermolability assay that measures the in vitro ability of HSP110 to block protein aggregation induced by a heat shock using Murine Embryonic Fibroblasts (MEF).

The test system of experiment [2] is protein aggregation induced by a heat shock. The experiment is described as follows: HSP110 chaperone activity, protein thermolability assay. Format: biochemical, mouse. Conditions: for anti-aggregation chaperone activity: protein extracts of transfected MEF heated at 55° C. for 1 h. The procedure:
FIG. 9 depicts the effect of HSP110delE9 expression on protein aggregation. Protein extracts from MEF HSF1^+/+ cells transfected with HSP70, HSP110 and/or HSP110delE9 were heated at 55° C. for 1 h. The ratio between the initial amount of soluble protein before and after heat shock allowed to the quantification of protein aggregation. Each bar is the mean value of 4 different experiments. *P<0.05.
HSP110 chaperone activity was evaluated using a protein thermolability assay. Total protein (2 mg/mL) from HSF1^−/− MEFs that had been transfected with HSP70 (positive control), HSP27 (negative control), HSP110 or Mutant HSP110 (Dc Assay Kits, Bio-Rad, France) was heated at 55° C. for 1 hour. After centrifugation to eliminate aggregated proteins, the remaining native proteins in the supernatant were quantified. The ratio between the initial amount of soluble protein and that obtained after heating allowed for the quantification of protein aggregation.
as §2

Experiment [3] deals with MSI (HCT116, LoVo) and MSS (SW480) CRC cell lines. The experiment in a line: Cell death analysis, sensitivity of transfected CRC cell lines to anticancer agents. The experiment is classed as cell-based, human. How it is done:
FIG. 13 depicts the pro-apoptotic effect of HSP110delE9 on tumor cells treated with a chemotherapeutic agent. HCT116 (MSI) or SW480 (MSS) cells were transfected with HSP110wt (1.5 μg) and co-transfected with two different doses (0.5 and 1 μg) of either GFP-empty vector or HSP110delE9. After treatment with oxaliplatin (Oxa, 40 μM, 48 h), apoptosis was assessed by FACS analysis. *P<0.05.
(§3) Adherent cells were plated onto 12-well culture plates (1.5×10^5 cells/well) in complete medium. When indicated, cells were treated with TRAIL (150 ng/ml or 500 ng/ml) for 4 hours and cell death was measured by Hoechst 33342 staining (Sigma-Aldrich). Following treatment for 48 h with oxaliplatin (OxaPt, 20 and 40 μM), apoptotic cells were detected by Apo2.7 staining. Briefly, cells were harvested, washed in PBS and permeabilized with digitonin (100 mg/ml, 10 min at 4° C.). Cells were incubated with anti-Apo2.7 antibody and apoptotic cells were analyzed by flow cytometry using a LSR2 flow cytometer (Becton Dickinson, Franklin Lakes, N.J.).
(§4) A number of studies have previously described the anti-apoptotic role of HSP110. We therefore investigated the effect on apoptosis of the HSP110 truncation due to exon 9 skipping. HCT116 cells were transfected with HSP110wt or HSP110delE9 and apoptosis was triggered using the cell death factor, TRAIL (Tumor necrosis factor-related-apoptosis-inducing ligand).

The target of a further experiment is T3, HSP27 (Homo sapiens, UniProt P04792).
T3 construct: HA; expressed in transfected cells; host or cells: HCT116
The experiment in a line: Immunoprecipitation and Western-blotting, association with HSP27. Format: binding. Conditions: HCT116 cells, immunoprecipitation. The procedure:
as §1, §2

In a further experiment the test system is HCT116 cells. The experiment in a line: Cell death analysis, TRAIL-induced apoptosis in transfected cells. The experiment is classed as cell-based, human. The note with it: for protective (anti-apoptotic) effect against TRAIL-induced apoptosis: transfected HCT116 cells. How it is done:
FIG. 11 depicts the effect of HSP110delE9 on apoptosis. HCT116 cells transfected with GFP-tagged HSP110, HSP110delE9 or an empty vector (GFP) were treated with recombinant TRAIL ligand (5 h) at the indicated doses. Apoptosis was measured by FACS analysis of caspase 3 activity.
FIG. 12 depicts the effect of increasing dose of HSP110delE9 on apoptosis. HCT116 cells transfected with GFP-tagged HSP110 and increased doses of HSP110delE9 or an empty vector (GFP) were treated with recombinant TRAIL ligand (60 ng/ml, 5 h) and the percentage of apoptosis was determined by DAPI staining (chromatin condensation).
as §3, §4

Experiment [4] has as its system denatured protein substrates. The note with it: compared to HSC70 and HSP70; cited from earlier work.
The next experiment has as its system HSP90. The experiment is described as follows: Immunoprecipitation and Western-blotting, association with HSP90. Conditions: HCT116 cells, immunoprecipitation. Format: binding. The procedure:
as §1, §2

T2 sequence (P0DMV8 whole entry): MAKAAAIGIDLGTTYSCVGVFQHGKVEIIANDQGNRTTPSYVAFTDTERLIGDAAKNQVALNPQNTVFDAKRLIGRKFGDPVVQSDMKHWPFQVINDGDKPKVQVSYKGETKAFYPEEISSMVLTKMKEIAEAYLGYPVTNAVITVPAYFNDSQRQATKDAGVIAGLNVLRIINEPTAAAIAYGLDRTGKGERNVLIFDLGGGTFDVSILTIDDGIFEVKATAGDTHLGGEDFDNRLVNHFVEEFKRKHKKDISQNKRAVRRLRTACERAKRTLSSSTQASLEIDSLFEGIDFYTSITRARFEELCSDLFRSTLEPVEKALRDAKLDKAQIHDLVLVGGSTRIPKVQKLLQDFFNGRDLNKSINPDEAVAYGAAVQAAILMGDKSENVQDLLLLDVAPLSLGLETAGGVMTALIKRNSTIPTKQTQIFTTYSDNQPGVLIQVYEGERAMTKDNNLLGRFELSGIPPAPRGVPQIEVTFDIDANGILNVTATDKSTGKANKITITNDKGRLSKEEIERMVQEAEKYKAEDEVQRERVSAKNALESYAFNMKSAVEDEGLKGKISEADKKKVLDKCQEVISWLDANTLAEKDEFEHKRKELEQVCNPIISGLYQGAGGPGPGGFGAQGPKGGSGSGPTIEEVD
T3 sequence (P04792 whole entry): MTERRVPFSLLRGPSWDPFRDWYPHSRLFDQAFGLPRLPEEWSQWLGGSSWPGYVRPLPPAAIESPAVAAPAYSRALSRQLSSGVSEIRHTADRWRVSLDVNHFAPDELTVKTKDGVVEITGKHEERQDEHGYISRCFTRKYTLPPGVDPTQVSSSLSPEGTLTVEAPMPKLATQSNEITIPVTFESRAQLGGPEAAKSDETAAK

B1: HSP110delE9: truncated HSP110 protein (SEQ ID NO: 1) from mRNA lacking exon 9, devoid of the substrate binding domain (protein, listed as Homo sapiens)
chain: MSVVGLDVGSQSCYIAVARAGGIETIANEFSDRCTPSVISFGSKNRTIGVAAKNQQITHANNTVSNFKRFHGRAFNDPFIQKEKENLSYDLVPLKNGGVGIKVMYMGEEHLFSVEQITAMLLTKLKETAENSLKKPVTDCVISVPSFFTDAERRSVLDAAQIVGLNCLRLMNDMTAVALNYGIYKQDLPSLDEKPRIVVFVDMGHSAFQVSACAFNKGKLKVLGTAFDPFLGGKNFDEKLVEHFCAEFKTKYKLDAKSKIRALLRLYQECEKLKKLMSSNSTDLPLNIECFMNDKDVSGKMNRSQFEELCAELLQKIEVPLYSLLEQTHLKVEDVSAVEIVGGATRIPAVKERIAKFFGKDISTTLNADEAVARGCALQC
In the case of B1, in [1], the apoptosis on re-expression entry was “causes apoptosis of MSI colon tumor cell lines”. Besides, in the experiment with HSP110wt, the “association with HSP110wt” value is “associated strongly with HSP110wt”. In addition, the “association with HSP70” value with HSP70 is “lost the ability to associate with HSP70 and HSP27”. In addition, the “effect on anti-aggregation activity of HSP110wt” value in [2] (HSP110delE9 added at the same time as HSP110wt) was “anti-aggregation activity of HSP110wt was abrogated”. Besides, in experiment [2], the anti-aggregation chaperone activity result is recorded as “lost this chaperone activity”. In addition, the “sensitization of colon cancer cells to chemotherapeutic agents” value in experiment [3] (5-fluorouracil and oxaliplatin, in vitro) is “caused the sensitization of colon cancer cells”. In addition, the “sensitivity of CRC cell lines to oxaliplatin” value in [3] (over-expression in HCT116, LoVo, SW480) is on record as “increased their sensitivity to anticancer agents such as oxaliplatin”. The “association with HSP27” value in the experiment with HSP27 was “lost the ability to associate with HSP70 and HSP27”. Moreover, in the experiment on HCT116 cells (HCT116 co-transfected with HSP110wt and increasing doses of HSP110delE9, TRAIL), the “effect on anti-apoptotic function of HSP110wt” value is “able to block its anti-apoptotic function in a dose-dependent manner”. The “protective (anti-apoptotic) effect against TRAIL-induced apoptosis” value in the experiment with HCT116 cells is reported as “lacked the protective properties of HSP110wt”.

B2: HSP110wt: wild-type heat-shock 110 kDa protein, SEQ ID NO: 2 (protein, listed as Homo sapiens)
chain: MSVVGLDVGSQSCYIAVARAGGIETIANEFSDRCTPSVISFGSKNRTIGVAAKNQQITHANNTVSNFKRFHGRAFNDPFIQKEKENLSYDLVPLKNGGVGIKVMYMGEEHLFSVEQITAMLLTKLKETAENSLKKPVTDCVISVPSFFTDAERRSVLDAAQIVGLNCLRLMNDMTAVALNYGIYKQDLPSLDEKPRIVVFVDMGHSAFQVSACAFNKGKLKVLGTAFDPFLGGKNFDEKLVEHFCAEFKTKYKLDAKSKIRALLRLYQECEKLKKLMSSNSTDLPLNIECFMNDKDVSGKMNRSQFEELCAELLQKIEVPLYSLLEQTHLKVEDVSAVEIVGGATRIPAVKERIAKFFGKDISTTLNADEAVARGCALQCAILSPAFKVREFSVTDAVPFPISLIWNHDSEDTEGVHEVFSRNHAAPFSKVLTFLRRGPFELEAFYSDPQGVPYPEAKIGRFVVQNVSAQKDGEKSRVKVKVRVNTHGIFTISTASMVEKVPTEENEMSSEADMECLNQRPPENPDTDKNVQQDNSEAGTQPQVQTDAQQTSQSPPSPELTSEENKIPDADKANEKKVDQPPEAKKPKIKVVNVELPIEANLVWQLGKDLLNMYIETEGKMIMQDKLEKERNDAKNAVEEYVYEFRDKLCGPYEKFICEQDHQNFLRLLTETEDWLYEEGEDQAKQAYVDKLEELMKIGTPVKVRFQEAEERPKMFEELGQRLQHYAKIAADFRNKDEKYNHIDESEMKKVEKSVNEVMEWMNNVMNAQAKKSLDQDPVVRAQEIKTKIKELNNTCEPVVTQPKPKIESPKLERTPNGPNIDKKEEDLEDKNNFGAEPPHQNGECYPNEKNSVNMDLD
As to B2, the “association with HSP70” value with HSP70 is reported as “efficiently interacted with HSP70”. Besides, the anti-aggregation chaperone activity result in [2] is “anti-aggregation activity comparable to other HSPs such as HSP70”. Also, the “efficiency at binding and stabilizing denatured protein substrates” value in experiment [4] is given as “approximately four-fold more efficient”. Also, in the experiment with HSP27, the “association with HSP27” value is “efficiently interacted”. For the same molecule, the “association with HSP90” value in the experiment with HSP90 is reported as “not with HSP90”. Besides, in the experiment with HCT116 cells, the “protective (anti-apoptotic) effect against TRAIL-induced apoptosis” value is on record as “exerted a protective effect”.

B3: TRAIL: cell death factor, Tumor necrosis factor-related-apoptosis-inducing ligand, recombinant (protein, UniProt P50591 1-281, looked up)
Tumor necrosis factor ligand …: MAMMEVQGGPSLGQTCVLIVIFTVLLQSLCVAVTYVYFTNELKQMQDKYSKSGIACFLKEDDSYWDPNDEESMNSPCWQVKWQLRQLVRKMILRTSEETISTVQEKQQNISPLVRERGPQRVAAHITGTRGRSNTLSSPNSKNEKALGRKINSWESSRSGHSFLSNLHLRNGELVIHEKGFYYIYSQTYFRFQEEIKENTKNDKQMVQYIYKYTSYPDPILLMKSARNSCWSKDAEYGLYSIYQGGIFELKENDRIFVSVTNEHLIDMDHEASFFGAFLVG
modifications: His tag
notes: cell death factor, Tumor necrosis factor-related-apoptosis-inducing ligand, recombinant
Regarding B3, in the experiment on HCT116 cells (HCT116 cells treated with TRAIL), the induction of apoptosis entry is on record as “induced dose dependent apoptosis”.
